Results taken from paper PMC6683731 (The Journal of Cell Biology, 2019).
Where two headings read alike, the source gives them in different places. Each block holds one binder with its values, some of them ahead of it.

How the values were obtained:
Assay in all cases: pull-down
His6-SET (full length) [1] = target: T1, His6-SET (full length) (human, UniProt Q01105 1-290)
[2] = target: T2, cohesin subcomplex containing SA2 (residues 80–1060) and Scc1 (residues 281–420) (UniProt Q8N3U4 80-1060; O60216 281-420)
T2 sequence (looked up) 1: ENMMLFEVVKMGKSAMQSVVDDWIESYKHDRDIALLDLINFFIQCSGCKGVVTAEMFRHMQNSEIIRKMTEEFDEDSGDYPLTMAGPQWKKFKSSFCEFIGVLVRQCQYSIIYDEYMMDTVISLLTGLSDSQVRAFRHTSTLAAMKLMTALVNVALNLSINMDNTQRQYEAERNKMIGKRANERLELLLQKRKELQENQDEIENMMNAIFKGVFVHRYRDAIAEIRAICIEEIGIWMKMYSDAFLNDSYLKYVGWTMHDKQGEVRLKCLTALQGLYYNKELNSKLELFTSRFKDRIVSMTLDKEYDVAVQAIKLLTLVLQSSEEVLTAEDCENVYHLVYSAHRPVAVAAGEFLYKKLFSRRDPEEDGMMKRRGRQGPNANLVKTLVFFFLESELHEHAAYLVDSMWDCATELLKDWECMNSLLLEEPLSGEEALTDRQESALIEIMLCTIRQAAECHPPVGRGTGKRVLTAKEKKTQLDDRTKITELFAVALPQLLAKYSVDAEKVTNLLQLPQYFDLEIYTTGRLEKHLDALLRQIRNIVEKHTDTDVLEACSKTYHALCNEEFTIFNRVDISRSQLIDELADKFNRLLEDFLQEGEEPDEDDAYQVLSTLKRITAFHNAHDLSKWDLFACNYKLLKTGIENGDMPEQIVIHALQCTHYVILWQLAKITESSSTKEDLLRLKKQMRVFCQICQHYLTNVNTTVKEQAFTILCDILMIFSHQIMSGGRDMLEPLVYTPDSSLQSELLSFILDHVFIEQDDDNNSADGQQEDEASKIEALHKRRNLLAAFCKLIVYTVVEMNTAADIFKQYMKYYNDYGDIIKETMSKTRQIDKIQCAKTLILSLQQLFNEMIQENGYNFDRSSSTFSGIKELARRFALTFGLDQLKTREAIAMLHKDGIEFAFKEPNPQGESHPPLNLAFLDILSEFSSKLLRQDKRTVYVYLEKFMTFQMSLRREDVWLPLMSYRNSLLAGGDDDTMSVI
T2 sequence (looked up) 2: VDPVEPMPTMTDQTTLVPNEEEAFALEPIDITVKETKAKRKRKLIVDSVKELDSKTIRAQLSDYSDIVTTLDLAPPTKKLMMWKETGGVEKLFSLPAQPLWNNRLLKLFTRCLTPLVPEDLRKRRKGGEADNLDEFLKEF

[3] = target: T2, cohesin subcomplex containing SA2 …; remark: listed apart in the source
His6-SET (full length) [4] = target: T1, His6-SET (full length); remark: listed apart in the source

T1 sequence (Q01105 whole entry, the tested form may be a part): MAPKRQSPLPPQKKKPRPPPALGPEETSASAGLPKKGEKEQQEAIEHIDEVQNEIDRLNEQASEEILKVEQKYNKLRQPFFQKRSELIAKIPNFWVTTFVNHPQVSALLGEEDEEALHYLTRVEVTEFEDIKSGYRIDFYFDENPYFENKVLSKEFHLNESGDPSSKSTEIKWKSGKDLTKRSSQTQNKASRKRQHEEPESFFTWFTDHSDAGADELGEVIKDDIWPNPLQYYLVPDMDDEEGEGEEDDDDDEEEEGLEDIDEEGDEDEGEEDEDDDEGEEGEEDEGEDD

B1: GST-Sgo1 fragment 115–353 (domain or fragment, human, UniProt Q5FBB7 115-353, looked up)
chain: QEICSSGMDPNSDDSSRNLFVKDLPQIPLEETELPGQGESFQIEDQIPTIPQDTLGVDFDSGEAKSTDNVLPRTVSVRSSLKKHCNSICQFDSLDDFETSHLAGKSFEFERVGFLDPLVNMHIPENVQHNACQWSKDQVNLSPKLIQPGTFTKTKEDILESKSEQTKSKQRDTQERKREEKRKANRRKSKRMSKYKENKSENKKTVPQKKMHKSVSSNDAYNFNLEEGVHLTPFRQKVS
- binding result (His6-SET (full length) [1]): binds

B2: GST-Sgo1 WT (241–387) (domain or fragment, human, UniProt Q5FBB7 241-387, looked up)
chain: VQHNACQWSKDQVNLSPKLIQPGTFTKTKEDILESKSEQTKSKQRDTQERKREEKRKANRRKSKRMSKYKENKSENKKTVPQKKMHKSVSSNDAYNFNLEEGVHLTPFRQKVSNDSNREENNESEVSLCESSGSGDDSDDLYLPTCK
- binding result [2]: binds
- binding result (His6-SET (full length) [1]): binds

B3: GST-Sgo1 (241–387), Cdk1-phosphorylated (domain or fragment, human, UniProt Q5FBB7 241-387, looked up)
chain: B2 chain
modifications: phospho-Thr346 (Cdk1/cyclin B1; detected with antibody against Sgo1 pT346; how much was phosphorylated could not be measured)
- binding result [3]: binds
- binding result (His6-SET (full length) [4]): binds

More lines, now with the values ahead:

- binding result (His6-SET (full length) [1]): binds
B4: GST-Sgo1 fragment 200–353 (domain or fragment, human, UniProt Q5FBB7 200-353, looked up)
chain: NSICQFDSLDDFETSHLAGKSFEFERVGFLDPLVNMHIPENVQHNACQWSKDQVNLSPKLIQPGTFTKTKEDILESKSEQTKSKQRDTQERKREEKRKANRRKSKRMSKYKENKSENKKTVPQKKMHKSVSSNDAYNFNLEEGVHLTPFRQKVS

- binding result [2]: binds
B5: GST-Sgo1 ΔSET (241–387 depleted of 281–310) (domain or fragment, human, UniProt Q5FBB7 241-387, looked up)
chain: VQHNACQWSKDQVNLSPKLIQPGTFTKTKEDILESKSEQTENKSENKKTVPQKKMHKSVSSNDAYNFNLEEGVHLTPFRQKVSNDSNREENNESEVSLCESSGSGDDSDDLYLPTCK

- binding result (His6-SET (full length) [1]): binds
B6: GST-Sgo1 ΔCohesin (241–387 depleted of 313–353) (domain or fragment, human, UniProt Q5FBB7 241-387, looked up)
chain: VQHNACQWSKDQVNLSPKLIQPGTFTKTKEDILESKSEQTKSKQRDTQERKREEKRKANRRKSKRMSKYKENNDSNREENNESEVSLCESSGSGDDSDDLYLPTCK

- binding result (His6-SET (full length) [1]): binds
B7: GST-Sgo1 fragment 280–353 (domain or fragment, human, UniProt Q5FBB7 280-353, looked up)
chain: TKSKQRDTQERKREEKRKANRRKSKRMSKYKENKSENKKTVPQKKMHKSVSSNDAYNFNLEEGVHLTPFRQKVS
